Measurements reported in publication PMC3925836 (Advanced healthcare materials, 2013).
Residue numbers refer to the chain shown, from its start. Each block holds one binder with its values, some of them ahead of it.

Assays:
GPRP-A80-I60 = target: T1, GPRP-A80-I60; test: plate-based fluorescence binding assay
T1 chain: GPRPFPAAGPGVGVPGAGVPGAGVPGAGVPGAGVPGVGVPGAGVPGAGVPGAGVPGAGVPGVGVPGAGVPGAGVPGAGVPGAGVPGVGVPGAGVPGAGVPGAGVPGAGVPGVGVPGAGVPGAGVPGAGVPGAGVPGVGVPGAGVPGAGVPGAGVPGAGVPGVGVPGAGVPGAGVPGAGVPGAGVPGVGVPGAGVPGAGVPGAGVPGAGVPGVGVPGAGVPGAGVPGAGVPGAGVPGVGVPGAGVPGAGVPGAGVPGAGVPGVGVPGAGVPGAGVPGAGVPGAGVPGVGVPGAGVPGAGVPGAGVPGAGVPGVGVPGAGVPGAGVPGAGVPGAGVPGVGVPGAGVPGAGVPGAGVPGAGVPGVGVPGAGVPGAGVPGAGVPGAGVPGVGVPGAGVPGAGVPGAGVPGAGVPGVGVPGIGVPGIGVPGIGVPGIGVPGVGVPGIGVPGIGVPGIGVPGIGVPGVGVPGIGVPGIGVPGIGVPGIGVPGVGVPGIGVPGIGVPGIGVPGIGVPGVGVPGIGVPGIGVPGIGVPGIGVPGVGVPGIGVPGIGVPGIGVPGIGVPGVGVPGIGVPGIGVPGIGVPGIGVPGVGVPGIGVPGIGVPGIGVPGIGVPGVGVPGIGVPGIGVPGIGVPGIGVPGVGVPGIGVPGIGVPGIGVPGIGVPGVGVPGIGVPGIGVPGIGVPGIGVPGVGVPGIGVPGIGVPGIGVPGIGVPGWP

GPRP-P40-I60 = target: T2, GPRP-P40-I60; test: plate-based fluorescence binding assay
T2 chain: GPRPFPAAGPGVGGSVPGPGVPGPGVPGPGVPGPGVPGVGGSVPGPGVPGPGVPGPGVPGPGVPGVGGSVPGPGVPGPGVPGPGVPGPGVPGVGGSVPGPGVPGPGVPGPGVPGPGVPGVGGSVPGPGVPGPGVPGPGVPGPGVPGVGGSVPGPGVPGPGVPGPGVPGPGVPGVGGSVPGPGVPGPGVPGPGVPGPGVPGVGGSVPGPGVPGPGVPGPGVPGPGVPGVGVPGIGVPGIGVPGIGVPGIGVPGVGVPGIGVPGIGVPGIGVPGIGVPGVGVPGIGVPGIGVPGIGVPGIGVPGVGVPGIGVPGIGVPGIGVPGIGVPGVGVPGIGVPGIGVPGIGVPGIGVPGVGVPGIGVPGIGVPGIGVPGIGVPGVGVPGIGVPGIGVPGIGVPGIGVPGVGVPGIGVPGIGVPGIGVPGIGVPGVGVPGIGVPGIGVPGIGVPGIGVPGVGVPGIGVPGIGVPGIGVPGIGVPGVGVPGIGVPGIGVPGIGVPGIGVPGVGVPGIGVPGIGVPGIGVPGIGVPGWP

GPRP-P40-I60-C = target: T3, GPRP-P40-I60-C; test: ELISA
T3 chain: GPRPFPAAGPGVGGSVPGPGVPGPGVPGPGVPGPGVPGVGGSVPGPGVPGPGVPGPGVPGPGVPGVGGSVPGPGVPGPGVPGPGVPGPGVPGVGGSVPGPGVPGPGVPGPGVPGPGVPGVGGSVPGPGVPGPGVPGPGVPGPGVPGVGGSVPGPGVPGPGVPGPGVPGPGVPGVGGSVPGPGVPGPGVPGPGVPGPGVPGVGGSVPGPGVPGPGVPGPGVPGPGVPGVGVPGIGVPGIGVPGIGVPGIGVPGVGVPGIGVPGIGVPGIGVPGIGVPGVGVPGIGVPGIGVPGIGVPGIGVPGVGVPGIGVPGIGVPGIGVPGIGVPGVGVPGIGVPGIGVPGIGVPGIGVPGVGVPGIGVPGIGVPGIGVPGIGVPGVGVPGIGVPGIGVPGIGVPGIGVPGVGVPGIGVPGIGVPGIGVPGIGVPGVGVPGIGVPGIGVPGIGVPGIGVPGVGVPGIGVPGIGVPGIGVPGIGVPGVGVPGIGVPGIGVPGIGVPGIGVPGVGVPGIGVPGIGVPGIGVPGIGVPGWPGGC

GPRP-A80-I60-C = target: T4, GPRP-A80-I60-C; test: ELISA
T4 chain: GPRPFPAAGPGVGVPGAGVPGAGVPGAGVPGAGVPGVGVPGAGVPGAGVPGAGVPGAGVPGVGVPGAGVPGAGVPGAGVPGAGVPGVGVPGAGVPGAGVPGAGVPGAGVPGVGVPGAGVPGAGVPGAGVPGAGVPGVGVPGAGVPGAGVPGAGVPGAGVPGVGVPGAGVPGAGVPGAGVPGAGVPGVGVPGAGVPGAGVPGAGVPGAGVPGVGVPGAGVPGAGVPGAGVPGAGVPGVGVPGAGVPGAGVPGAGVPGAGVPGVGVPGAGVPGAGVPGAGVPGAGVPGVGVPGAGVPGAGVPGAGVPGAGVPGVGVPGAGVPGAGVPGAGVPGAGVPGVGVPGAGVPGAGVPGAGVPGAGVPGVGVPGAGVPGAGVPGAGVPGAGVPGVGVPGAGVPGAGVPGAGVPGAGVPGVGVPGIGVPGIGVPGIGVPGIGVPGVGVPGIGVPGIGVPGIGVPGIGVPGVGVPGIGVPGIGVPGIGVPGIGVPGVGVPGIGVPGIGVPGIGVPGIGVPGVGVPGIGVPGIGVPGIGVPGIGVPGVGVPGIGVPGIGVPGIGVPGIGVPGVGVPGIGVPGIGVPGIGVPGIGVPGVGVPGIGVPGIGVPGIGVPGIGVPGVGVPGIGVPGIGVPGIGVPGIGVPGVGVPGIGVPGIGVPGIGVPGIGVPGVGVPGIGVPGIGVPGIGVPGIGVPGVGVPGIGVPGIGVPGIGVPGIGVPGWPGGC

binding result (GPRP-A80-I60): binds
binding result (GPRP-P40-I60): binds
B1: GPSP-P40-I60-C labelled with Alexa Fluor 488 or Alexa Fluor 546 (designed binder)
chain: T3 chain with R3S
modifications: Alexa Fluor 488 or Alexa Fluor 546 on the C-terminal cysteine (sulfhydryl-maleimide)

% normalized signal (GPRPFPAC-coated wells = 100 %), saturated wells (GPRP-P40-I60-C): > 100%
% normalized signal (GPRPFPAC-coated wells = 100 %), saturated wells (GPRP-A80-I60-C): > 100%
B2: fibrinogen, P02671 36-866; P02675 45-491; P02679 27-453 (complex)
chain 1: ADSGEGDFLAEGGGVRGPRVVERHQSACKDSDWPFCSDEDWNYKCPSGCRMKGLIDEVNQDFTNRINKLKNSLFEYQKNNKDSHSLTTNIMEILRGDFSSANNRDNTYNRVSEDLRSRIEVLKRKVIEKVQHIQLLQKNVRAQLVDMKRLEVDIDIKIRSCRGSCSRALAREVDLKDYEDQQKQLEQVIAKDLLPSRDRQHLPLIKMKPVPDLVPGNFKSQLQKVPPEWKALTDMPQMRMELERPGGNEITRGGSTSYGTGSETESPRNPSSAGSWNSGSSGPGSTGNRNPGSSGTGGTATWKPGSSGPGSTGSWNSGSSGTGSTGNQNPGSPRPGSTGTWNPGSSERGSAGHWTSESSVSGSTGQWHSESGSFRPDSPGSGNARPNNPDWGTFEEVSGNVSPGTRREYHTEKLVTSKGDKELRTGKEKVTSGSTTTTRRSCSKTVTKTVIGPDGHKEVTKEVVTSEDGSDCPEAMDLGTLSGIGTLDGFRHRHPDEAAFFDTASTGKTFPGFFSPMLGEFVSETESRGSESGIFTNTKESSSHHPGIAEFPSRGKSSSYSKQFTSSTSYNRGDSTFESKSYKMADEAGSEADHEGTHSTKRGHAKSRPV
chain 2: QGVNDNEEGFFSARGHRPLDKKREEAPSLRPAPPPISGGGYRARPAKAAATQKKVERKAPDAGGCLHADPDLGVLCPTGCQLQEALLQQERPIRNSVDELNNNVEAVSQTSSSSFQYMYLLKDLWQKRQKQVKDNENVVNEYSSELEKHQLYIDETVNSNIPTNLRVLRSILENLRSKIQKLESDVSAQMEYCRTPCTVSCNIPVVSGKECEEIIRKGGETSEMYLIQPDSSVKPYRVYCDMNTENGGWTVIQNRQDGSVDFGRKWDPYKQGFGNVATNTDGKNYCGLPGEYWLGNDKISQLTRMGPTELLIEMEDWKGDKVKAHYGGFTVQNEANKYQISVNKYRGTAGNALMDGASQLMGENRTMTIHNGMFFSTYDRDNDGWLTSDPRKQCSKEDGGGWWYNRCHAANPNGRYYWGGQYTWDMAKHGTDDGVVWMNWKGSWYSMRKMSMKIRPFFPQQ
chain 3: YVATRDNCCILDERFGSYCPTTCGIADFLSTYQTKVDKDLQSLEDILHQVENKTSEVKQLIKAIQLTYNPDESSKPNMIDAATLKSRKMLEEIMKYEASILTHDSSIRYLQEIYNSNNQKIVNLKEKVAQLEAQCQEPCKDTVQIHDITGKDCQDIANKGAKQSGLYFIKPLKANQQFLVYCEIDGSGNGWTVFQKRLDGSVDFKKNWIQYKEGFGHLSPTGTTEFWLGNEKIHLISTQSAIPYALRVELEDWNGRTSTADYAMFKVGPEADKYRLTYAYFAGGDAGDAFDGFDFGDDPSDKFFTSHNGMQFSTWDNDNDKFEGNCAEQDGSGWWMNKCHAGHLNGVYYQGGTYSKASTPNGYDNGIIWATWKTRWYSMKKTTMKIIPFNRLTIGEGQQHHLGGAKQAGDV
modifications: not checked
